In article PMC2927421, “Tyrosine-Phosphorylated Caveolin-1 Blocks Bacterial Uptake by Inducing Vav2-RhoA-Mediated Cytoskeletal Rearrangements” (PLoS Biology, 2010):
Like-named read-outs stand apart in the source and are kept apart here. Where no end group is shown, it is not given here. [ ]: non-standard residue; d: D form. pY = N[C@@H](Cc1ccc(OP(=O)(O)O)cc1)C(=O)O

Legend:
[1] = molecular target: Phospholipase Cγ1 (PLCγ1) (UniProt P19174); assay: biotin-peptide streptavidin pull-down from lysate; details: reference: non-phosphorylated peptide; sites Y14
[2] = molecular target: Vav2 (UniProt P52735); assay: biotin-peptide streptavidin pull-down from lysate; details: reference: non-phosphorylated peptide; sites Y14
[3] = molecular target: T1, RasA1 (Homo sapiens)
T1 chain: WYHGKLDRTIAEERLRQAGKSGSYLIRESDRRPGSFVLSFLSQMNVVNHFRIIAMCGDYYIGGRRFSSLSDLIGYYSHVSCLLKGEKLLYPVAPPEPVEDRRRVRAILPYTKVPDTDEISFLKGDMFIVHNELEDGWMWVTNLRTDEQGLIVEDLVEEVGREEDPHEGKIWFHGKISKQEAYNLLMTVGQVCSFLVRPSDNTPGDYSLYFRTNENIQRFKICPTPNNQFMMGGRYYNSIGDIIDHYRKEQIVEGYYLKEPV

[4] = molecular target: T2, SH2 domain of Abl2 (recombinant, on protein microarray) (human, UniProt P42684 173-263)
T2 chain: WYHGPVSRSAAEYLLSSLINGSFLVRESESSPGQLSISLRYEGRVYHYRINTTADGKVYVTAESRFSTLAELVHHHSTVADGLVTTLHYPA

[5] = molecular target: T3, SH2 domain of Grb10 (recombinant, on protein microarray) (human, UniProt Q13322 493-574)
T3 chain: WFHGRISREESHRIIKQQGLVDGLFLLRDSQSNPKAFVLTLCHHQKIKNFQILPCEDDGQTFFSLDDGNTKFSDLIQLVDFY

[6] = molecular target: T4, SH2 domain of Abl1 (recombinant, on protein microarray) (human, UniProt P00519 127-217)
T4 chain: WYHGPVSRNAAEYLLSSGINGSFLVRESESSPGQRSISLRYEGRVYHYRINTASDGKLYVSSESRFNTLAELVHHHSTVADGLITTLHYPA

[7] = molecular target: T5, SH2 domain of SH2D3C (recombinant, on protein microarray) (human, UniProt Q8N5H7 220-319)
T5 chain: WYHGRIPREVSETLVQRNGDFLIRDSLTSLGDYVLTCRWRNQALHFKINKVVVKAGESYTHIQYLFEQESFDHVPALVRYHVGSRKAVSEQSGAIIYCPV

[8] = molecular target: T6, SH2 domain of Phospholipase Cγ1 (recombinant, on protein microarray) (human); assay: tandem NC SH2 domains
T6 chain: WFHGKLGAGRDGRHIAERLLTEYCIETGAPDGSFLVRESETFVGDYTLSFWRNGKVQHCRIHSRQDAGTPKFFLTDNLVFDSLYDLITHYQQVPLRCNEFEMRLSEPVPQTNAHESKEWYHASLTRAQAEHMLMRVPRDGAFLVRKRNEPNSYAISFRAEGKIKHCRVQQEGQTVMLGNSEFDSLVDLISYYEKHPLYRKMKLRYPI

[9] = molecular target: T7, SH2 domain of Phospholipase Cγ1 (recombinant, on protein microarray) (human); assay: peptide or protein array; recombinant human SH2 and PTB domains spotted on protein microarrays; probed in duplicate with eight concentrations of fluorescently labeled peptide, 10 nM to 5 µM; fluorescence fit to a saturation binding equation; details: both partners purified
T7 chain: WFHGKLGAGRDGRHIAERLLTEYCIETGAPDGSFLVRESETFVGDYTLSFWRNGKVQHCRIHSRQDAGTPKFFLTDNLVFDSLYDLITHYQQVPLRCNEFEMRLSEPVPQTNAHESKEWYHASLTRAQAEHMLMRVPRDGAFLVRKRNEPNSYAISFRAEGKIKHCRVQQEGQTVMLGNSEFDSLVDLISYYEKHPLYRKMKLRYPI

[10] = molecular target: T8, SH2 domain of the RhoA GEF Vav2 (recombinant, on protein microarray) (human, UniProt P52735 673-767); assay: as above; details: both partners purified
T8 construct: Vav2, human, SH2 domain
T8 sequence (looked up): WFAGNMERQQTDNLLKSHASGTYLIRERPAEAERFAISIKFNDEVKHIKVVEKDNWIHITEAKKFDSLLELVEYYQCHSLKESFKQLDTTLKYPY

[11] = molecular target: T9, SH2 domain of Abl2 (recombinant, on protein microarray) (human, UniProt P42684 173-263); assay: as above; details: both partners purified
T9 construct: Abl2, human, SH2 domain
T9 sequence (looked up): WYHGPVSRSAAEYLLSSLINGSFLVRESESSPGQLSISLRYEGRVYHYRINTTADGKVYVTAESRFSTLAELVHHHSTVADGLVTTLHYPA

[12] = molecular target: T10, SH2 domain of SH2D3C (recombinant, on protein microarray) (human, UniProt Q8N5H7 220-319); assay: as above; details: both partners purified
T10 construct: SH2D3C, human, SH2 domain
T10 sequence (looked up): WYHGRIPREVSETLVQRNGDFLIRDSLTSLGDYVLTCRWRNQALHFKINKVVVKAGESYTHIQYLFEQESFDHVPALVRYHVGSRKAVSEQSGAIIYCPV

[13] = molecular target: T11, SH2 domain of Grb10 (recombinant, on protein microarray) (human, UniProt Q13322 493-574); assay: as above; details: both partners purified
T11 construct: Grb10, human, SH2 domain
T11 sequence (looked up): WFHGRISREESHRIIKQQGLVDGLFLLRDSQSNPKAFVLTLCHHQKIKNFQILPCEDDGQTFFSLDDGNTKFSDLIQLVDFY

[14] = molecular target: T12, SH2 domain of Abl1 (recombinant, on protein microarray) (human, UniProt P00519 127-217); assay: as above; details: both partners purified
T12 construct: Abl1, human, SH2 domain
T12 sequence (looked up): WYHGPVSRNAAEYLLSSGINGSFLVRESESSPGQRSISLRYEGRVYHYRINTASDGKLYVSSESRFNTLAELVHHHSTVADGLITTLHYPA

caveolin-1 (Cav1) 7-21 (from UniProt Q03135) pTyr14 peptide
binding against the reference [1]: stronger | binding against the reference [2]: stronger

KYVDSEGHLYTVPIREQG (also: fluorescent label (position not given here)) [fluorescently labeled non-phosphorylated Cav1 peptide (residues 5-22 of Cav1)]
Kd [3]: 1390 nM

B1: fluorescently labeled Tyr14-Cav1 phosphopeptide (residues 5-22 of Cav1, phosphorylated on Tyr14) (peptide, UniProt Q03135 5-22, looked up)
peptide: KYVDSEGHL[pY]TVPIREQG
modifications: also: fluorescent label (position not given here)
notes: caveolin-1 (Cav1), human, residues 5-22; also called Tyr14-Cav1 phosphopeptide (18 amino acids); source: synthetic peptide, purified to >95% by preparative reverse phase HPLC
Kd [4]: 58 nM | Kd [5]: 1370 nM | Kd [6]: 1640 nM | Kd [7]: 874 nM | Kd [8]: 482 nM | Kd [9]: < 2000 nM | Kd [10]: 222 nM | Kd [11]: < 2000 nM | Kd [12]: < 2000 nM | Kd [13]: < 2000 nM | Kd [14]: < 2000 nM
